Reference: article PMC4847171, “Structural model of FeoB, the iron transporter from Pseudomonas aeruginosa, predicts a cysteine lined, GTP-gated pore” (Bioscience Reports, 2016)
Several values for one entry are separate records, joined by “and”; a condition that tells them apart may be missing. Equal entries are not always repeated.

How the values were obtained:
[1] = molecular target: FeoB from Pseudomonas aeruginosa, histidine-tagged (Pseudomonas aeruginosa); assay: AFM; AFM imaging in air of isolated FeoB diluted 10000-20000 times in 10 mM K-HEPES pH 7.0, 200 mM NaCl, 10 mM MgSO4, 0.05% C12E8, adsorbed on mica and dried; oligomeric state from molecular volumes
[2] = molecular target: FeoB from Pseudomonas aeruginosa, histidine-tagged (Pseudomonas aeruginosa); assay: native gel or EMSA; blue-native PAGE (NativePAGE Novex Bis-Tris 4%-12% gel, Coomassie blue G-250, 140 V for 2 h); purified FeoB solubilised with the polymer NV10
[3] = molecular target: the molecule itself; assay: native gel or EMSA; blue-native PAGE, same gel as FeoB; comparison proteins MexB and BSA

FeoB from Pseudomonas aeruginosa, histidine-tagged (natural protein)
stoichiometry N [1]: 3 and 6
stoichiometry N [2]: 3 and 6

B1: MexB, drug efflux transporter from Pseudomonas aeruginosa (natural protein)
chain: MSKFFIDRPIFAWVIALVIMLAGGLSILSLPVNQYPAIAPPAIAVQVSYPGASAETVQDTVVQVIEQQMNGIDNLRYISSESNSDGSMTITVTFEQGTDPDIAQVQVQNKLQLATPLLPQEVQRQGIRVTKAVKNFLMVVGVVSTDGSMTKEDLSNYIVSNIQDPLSRTKGVGDFQVFGSQYSMRIWLDPAKLNSYQLTPGDVSSAIQAQNVQISSGQLGGLPAVKGQQLNATIIGKTRLQTAEQFENILLKVNPDGSQVRLKDVADVGLGGQDYSINAQFNGSPASGIAIKLATGANALDTAKAIRQTIANLEPFMPQGMKVVYPYDTTPVVSASIHEVVKTLGEAILLVFLVMYLFLQNFRATLIPTIAVPVVLLGTFGVLAAFGFSINTLTMFGMVLAIGLLVDDAIVVVENVERVMAEEGLSPREAARKSMGQIQGALVGIAMVLSAVFLPMAFFGGSTGVIYRQFSITIVSAMALSVIVALILTPALCATMLKPIEKGDHGEHKGGFFGWFNRMFLSTTHGYERGVASILKHRAPYLLIYVVIVAGMIWMFTRIPTAFLPDEDQGVLFAQVQTPPGSSAERTQVVVDSMREYLLEKESSSVSSVFTVTGFNFAGRGQSSGMAFIMLKPWEERPGGENSVFELAKRAQMHFFSFKDAMVFAFAPPSVLELGNATGFDLFLQDQAGVGHEVLLQARNKFLMLAAQNPALQRVRPNGMSDEPQYKLEIDDEKASALGVSLADINSTVSIAWGSSYVNDFIDRGRVKRVYLQGRPDARMNPDDLSKWYVRNDKGEMVPFNAFATGKWEYGSPKLERYNGVPAMEILGEPAPGLSSGDAMAAVEEIVKQLPKGVGYSWTGLSYEERLSGSQAPALYALSLLVVFLCLAALYESWSIPFSVMLVVPLGVIGALLATSMRGLSNDVFFQVGLLTTIGLSAKNAILIVEFAKELHEQGKGIVEAAIEACRMRLRPIVMTSLAFILGVVPLAISTGAGSGSQHAIGTGVIGGMVTATVLAIFWVPLFYVAVSTLFKDEASKQQASVEKGQ
stoichiometry N [3]: 2 and 3
